Laboratory results: patent US20210238276A1 (INTEGRAL MOLECULAR, published 2021)
Changes are numbered by the printed parent chain.

Experiments:
hsGLUT4 G348A = target: T1, hsGLUT4 G348A (human, UniProt P14672 1-509); test: flow cytometry, alanine-scan library in HEK-293T, with cytochalasin B
T1 sequence: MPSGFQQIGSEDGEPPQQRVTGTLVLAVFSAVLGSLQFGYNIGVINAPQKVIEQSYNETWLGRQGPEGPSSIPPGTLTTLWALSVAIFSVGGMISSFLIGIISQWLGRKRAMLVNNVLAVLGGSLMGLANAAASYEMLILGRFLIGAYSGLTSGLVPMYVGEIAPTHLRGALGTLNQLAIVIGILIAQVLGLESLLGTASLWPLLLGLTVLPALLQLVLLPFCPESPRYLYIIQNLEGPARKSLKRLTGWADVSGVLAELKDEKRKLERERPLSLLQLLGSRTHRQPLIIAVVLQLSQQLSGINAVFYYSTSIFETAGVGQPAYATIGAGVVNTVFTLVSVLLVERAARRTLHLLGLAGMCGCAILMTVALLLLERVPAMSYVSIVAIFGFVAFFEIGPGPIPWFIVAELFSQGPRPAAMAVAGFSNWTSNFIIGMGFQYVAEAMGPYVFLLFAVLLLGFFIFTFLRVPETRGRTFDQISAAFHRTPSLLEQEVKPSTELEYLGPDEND
In short: (§1)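 HEK-293T cells expressing individual GLUT4 alanine mutants were stained 48 h post-transfection with anti-GLUT4 scFv MAbs (2 μg/ml), then biotinylated secondary and streptavidin-PerCP, and read by high-throughput flow cytometry. Where used, cytochalasin B (10 uM final) was given for 30 min before and during primary antibody staining.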

hsGLUT4 F405A = target: T2, hsGLUT4 F405A (human, UniProt P14672 1-509); test: as above
T2 sequence: T1 sequence with A348G, F405A
In short: as §1

B1: AB102 (Fc fusion)
scFv: ALTQPSSVSANLGGTVKITCSGGGSYGYGWYQQKSPGSAPVTVIYSNDQRPSDIPSRFSGSKSGSTATLTITGVRAEDEAIYYCGSTDSDYVGIFGAGTTLTVLGQSSRSSGGGGSSGGGGSAVTLDESGGGLQTPGGTLSLVCKASGFDFSSYATIWVRQAPGKGLEWVAGISGTGTGSSTGYAPAVKGRATISRDNGQSTVRLQLNNLRAEDTGSYFCAKSTGYGDSWIYPDSIDAWGHGTEVIVSS
notes: also called MAb AB102; not shown: Fc fragment of human IgG1, cloned in frame with the scFv
% of binding to wild type GLUT4 (hsGLUT4 G348A): 79% | % of binding to wild type GLUT4 (hsGLUT4 F405A): 105%
